Assay results taken from US20040006777A1 (HSC RESEARCH AND DEVELOPMENT LIMITED PARTNERSHIP, published 2004).

Experiments:
p125Fak = p125Fak (human, UniProt Q05397 2-1052, limits assumed); experiment: western blot of Lyp immunoprecipitates from anti-CD3 stimulated human thymocytes
Experimental: (§1) (A) Lyp immunoprecipitates from thymocytes (80×10⁶ cells) stimulated with anti-CD3 were blotted with antiphsophotyrosine. […] Lyp protein loading was quantitated by anti-Lyp western blot after stripping. […] (C) Lyp1 was transfected into COS-7 cells and Cbl immunoprecipitates prepared from these and untransfected cells. Western blotting was performed with Lyp antibodies. The position of Lyp is indicted by an arrow. Cbl immunoprecipitates were also prepared and blotted with anti-phosphotyrosine (D), and then anti-Cbl after stripping.
(§2) One of the earliest events following TCR stimulation of T cells is the induction of tyrosine phosphorylation. In order to determine whether Lyp played a role in TCR signalling, human thymocytes were stimulated with anti-CD3 for various periods of time, Lyp immunoprecipitated and blotted with anti-phosphotyrosine. […] Once activated, the phosphorylation level of this protein remained constant over a period of 20 minutes. […] This interaction was also observed in the mature T cell line Jurkat (not shown) and further confirmed by transfection of Lyp1 into COS-7 cells and examining its association with the endogenous Cbl protein (FIG. 13C).

[1] = target: T1, p116 Jak3 (endogenous, human thymocytes) (human, UniProt P52333 1-1124, limits assumed); experiment: as above
T1 sequence (looked up): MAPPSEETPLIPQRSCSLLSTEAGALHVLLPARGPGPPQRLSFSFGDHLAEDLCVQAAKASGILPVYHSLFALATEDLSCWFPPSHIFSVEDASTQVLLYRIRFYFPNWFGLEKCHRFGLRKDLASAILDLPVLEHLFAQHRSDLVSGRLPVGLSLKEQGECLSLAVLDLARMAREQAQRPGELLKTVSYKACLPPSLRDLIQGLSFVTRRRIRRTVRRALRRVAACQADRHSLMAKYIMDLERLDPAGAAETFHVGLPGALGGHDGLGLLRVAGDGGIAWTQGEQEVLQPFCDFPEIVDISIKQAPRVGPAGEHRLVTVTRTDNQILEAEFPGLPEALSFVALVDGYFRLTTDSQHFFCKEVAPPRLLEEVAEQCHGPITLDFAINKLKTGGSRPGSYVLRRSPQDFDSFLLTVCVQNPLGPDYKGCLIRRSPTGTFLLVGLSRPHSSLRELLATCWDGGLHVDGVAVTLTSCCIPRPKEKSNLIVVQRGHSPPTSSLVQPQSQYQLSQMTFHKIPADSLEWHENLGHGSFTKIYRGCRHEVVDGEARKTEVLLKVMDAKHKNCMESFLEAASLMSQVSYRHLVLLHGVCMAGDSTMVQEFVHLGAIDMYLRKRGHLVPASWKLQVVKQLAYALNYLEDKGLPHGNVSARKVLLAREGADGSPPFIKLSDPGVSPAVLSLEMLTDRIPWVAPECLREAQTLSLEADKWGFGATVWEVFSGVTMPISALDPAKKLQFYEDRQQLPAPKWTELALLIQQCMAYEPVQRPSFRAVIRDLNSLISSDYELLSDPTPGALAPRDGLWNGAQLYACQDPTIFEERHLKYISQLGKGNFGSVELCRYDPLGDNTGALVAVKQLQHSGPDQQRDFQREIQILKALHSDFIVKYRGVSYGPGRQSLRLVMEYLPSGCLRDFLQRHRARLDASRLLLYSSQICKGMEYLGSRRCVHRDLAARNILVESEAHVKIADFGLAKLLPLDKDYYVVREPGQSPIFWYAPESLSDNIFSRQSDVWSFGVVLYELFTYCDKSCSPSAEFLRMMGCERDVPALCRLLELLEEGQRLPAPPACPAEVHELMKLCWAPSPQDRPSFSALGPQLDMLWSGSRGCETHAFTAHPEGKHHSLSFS
Experimental: as §1, §2

Chain of p125Fak (Q05397 2-1052 limits assumed): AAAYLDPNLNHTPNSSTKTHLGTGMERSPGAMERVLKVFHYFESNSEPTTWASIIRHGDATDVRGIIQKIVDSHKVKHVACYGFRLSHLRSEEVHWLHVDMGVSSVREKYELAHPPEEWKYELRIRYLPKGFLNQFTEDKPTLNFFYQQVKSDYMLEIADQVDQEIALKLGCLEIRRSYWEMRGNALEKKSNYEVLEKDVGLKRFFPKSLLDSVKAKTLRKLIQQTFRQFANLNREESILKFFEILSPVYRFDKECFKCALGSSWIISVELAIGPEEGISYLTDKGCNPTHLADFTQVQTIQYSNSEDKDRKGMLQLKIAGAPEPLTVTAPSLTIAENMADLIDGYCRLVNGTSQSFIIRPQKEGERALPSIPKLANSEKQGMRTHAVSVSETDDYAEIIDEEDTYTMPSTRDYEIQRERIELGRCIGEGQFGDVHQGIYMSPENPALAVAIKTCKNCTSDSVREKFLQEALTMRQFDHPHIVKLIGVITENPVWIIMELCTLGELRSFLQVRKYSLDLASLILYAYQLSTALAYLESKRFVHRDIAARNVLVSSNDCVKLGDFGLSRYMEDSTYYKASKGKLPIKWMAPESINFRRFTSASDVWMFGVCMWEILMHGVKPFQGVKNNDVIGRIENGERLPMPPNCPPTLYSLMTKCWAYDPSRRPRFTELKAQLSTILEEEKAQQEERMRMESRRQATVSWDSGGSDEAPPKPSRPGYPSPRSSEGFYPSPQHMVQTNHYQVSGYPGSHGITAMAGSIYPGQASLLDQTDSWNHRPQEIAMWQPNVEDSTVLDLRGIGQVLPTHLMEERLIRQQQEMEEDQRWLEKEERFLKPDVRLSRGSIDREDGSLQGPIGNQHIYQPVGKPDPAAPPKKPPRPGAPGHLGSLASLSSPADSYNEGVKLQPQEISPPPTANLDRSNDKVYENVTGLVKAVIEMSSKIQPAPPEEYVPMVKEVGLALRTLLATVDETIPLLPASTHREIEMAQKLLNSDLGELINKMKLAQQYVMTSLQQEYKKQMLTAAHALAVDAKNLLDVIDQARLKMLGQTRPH

B1: Lyp1 (human lymphoid protein tyrosine phosphatase, 105 kD) (enzyme)
chain: MDQREILQKFLDEAQSKKITKEEFANEFLKLKRQSTKYKADKTYPTTVAENAKNIKKNRYKDILPYDYSRVELSLITSDEDSSYINANFIKGVYGPKAYIATQGPLSTTLLDFWRMIWEYSVLIIVMACMEYEMGKKKCERYWAEPGEMQLEFGPFSVSCEAEKRKSDYIIRTLKVKFNSETRTIYQFHYKNWPDHDVPSSIDPILELIWDVRCYQEDDSVPICIHCSAGCGRTGVICAIVDYTWMLLKDGIIPENFSVFSLIREMRTQRPSLVQTQEQYELVYNAVLELFKRQMDVIRDKHSGTESQAKHCIPEKNHTLQADSYSPNLPKSTTKAAKMMNQQRTKMEIKESSSFDFRTSEISAKEELVLHPAKSSTSFDFLELNYSFDKNADTTMKWQTKAFPIVGEPLQKHQSLDLGSLLFEGCSNSKPVNAAGRYFNSKVPITRTKSTPFELIQQRETKEVDSKENFSYLESQPHDSCFVEMQAQKVMHVSSAELNYSLPYDSKHQIRNASNVKHHDSSALGVYSYIPLVENPYFSSWPPSGTSSKMSLDLPEKQDGTVFPSSLLPTSSTSLFSYYNSHSSLSLNSPTNISSLLNQESAVLATAPRIDDEIPPPLPVRTPESFIVVEEAGEFSPNVPKSLSSAVKVKIGTSLEWGGTSEPKKFDDSVILRPSKSVKLRSPKSELHQDRSSPPPPLPERTLESFFLADEDCMQAQSIETYSTSYPDTMENSTSSKQTLKTPGKSFTRSKSLKILRNMKKSICNSCPPNKPAESVQSNNSSSFLNFGFANRFSKPKGPRNPPPTWNI
notes: also called native Lyp1; pcDNA3-Lyp1
Q: Does B1 bind (p125Fak)?
A: Result: no binding

Q: Does B1 bind [1]?
A: Result: no binding
